The target of data set [1] is thrombin protease (Amersham Biosciences). As to the kind of experiment: cell-based or functional assay.
Data set [2] has as its target GFP^2-RG-RLuc fusion protein (UniProt P27652).
Data set [3] concerns the target GFP^2-RG-RLuc2 (GTR2) (UniProt P27652).

GFP^2-RG-RLuc fusion protein, sequence (P27652 other isoform, or with tags, fused parts or gaps): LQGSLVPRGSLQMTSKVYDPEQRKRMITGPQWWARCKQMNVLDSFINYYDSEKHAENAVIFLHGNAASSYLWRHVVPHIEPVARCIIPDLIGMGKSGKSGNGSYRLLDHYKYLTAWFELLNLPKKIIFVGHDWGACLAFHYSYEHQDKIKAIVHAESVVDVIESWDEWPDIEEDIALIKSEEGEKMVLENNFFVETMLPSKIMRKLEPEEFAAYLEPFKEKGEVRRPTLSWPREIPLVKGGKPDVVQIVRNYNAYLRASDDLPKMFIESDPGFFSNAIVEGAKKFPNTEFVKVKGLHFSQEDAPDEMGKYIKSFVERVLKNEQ
Recombinant hirudin from yeast (Sigma), sequence (P01050 whole entry): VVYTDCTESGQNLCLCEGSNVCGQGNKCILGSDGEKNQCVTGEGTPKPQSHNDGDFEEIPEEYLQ
GFP^2-RG-RLuc2 (GTR2), sequence (P27652 other isoform, or with tags, fused parts or gaps): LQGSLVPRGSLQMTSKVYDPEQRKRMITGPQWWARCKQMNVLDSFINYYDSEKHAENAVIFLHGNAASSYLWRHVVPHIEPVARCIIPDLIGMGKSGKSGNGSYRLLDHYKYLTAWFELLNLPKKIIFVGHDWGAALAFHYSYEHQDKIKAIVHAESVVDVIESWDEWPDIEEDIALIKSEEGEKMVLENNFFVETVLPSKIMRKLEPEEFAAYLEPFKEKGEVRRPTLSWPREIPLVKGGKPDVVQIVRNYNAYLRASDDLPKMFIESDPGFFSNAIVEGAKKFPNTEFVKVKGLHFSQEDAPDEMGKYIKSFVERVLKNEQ

Regarding “Recombinant hirudin from yeast (Sigma) (from UniProt P01050 1-65)”, the BRET^H ratio of the sensor with thrombin after pre-addition of hirudin in data set [1] was determined as 1.08.

Consider “thrombin protease (Amersham Biosciences)”, for which, in data set [2], the “BRET^H ratio following thrombin cleavage” value is given as “from 1.11±0.06 to 0.75±0.04”; the “SDS-PAGE of the sensor after thrombin treatment” value is “the fusion protein was cleaved into two components with molecular weights of 32.4 KDa and 36.4 KDa”; the “bioluminescence spectrum of the sensor after thrombin” value is listed as “Upon thrombin cleavage the green component of the spectrum was reduced”; the change of BRET^2 ratio (GFP/RLuc) at 270 pM thrombin was determined as 10 fold. Moreover, in data set [2], the “decrease in BRET^2 signal, on-chip mixing of 1 µM sensor with 540 nM thrombin and substrate” value is “Approximately 75% decrease in BRET^2 signal”; the “decrease of the BRET^H ratio following thrombin cleavage” value is reported as “by approximately 32%”; the “detection limit for thrombin, microchip BRET^H” value is 27 pM; the “detection limit for thrombin, microplate BRET^H” value came to 310 pM. In data set [2], the hybrid BRET ratio following thrombin cleavage came to 0.79; the “lowest thrombin concentration observable in real time (120 seconds), side-by-side network” value is reported as 540 nM; the “lowest thrombin concentration tested and detected, pancake stack network” value is listed as “Thrombin was detected down to 14 nM, the lowest concentration tested”; the “thrombin concentration detected easily, pancake stack network (478 second residence time)” value was 27 nM thrombin could be detected easily. In addition, in data set [2], the “upper end of the linear change of BRET^H ratio with thrombin concentration, microfluidic” value is on record as “up to 0.24 nM for microfluidic measurements” and the “upper end of the linear change of BRET^H ratio with thrombin concentration, microplate” value is 2.7 nM for microplate measurements. Besides, in data set [3], the “change of BRET^2 ratio of GTR2 after 2 units of thrombin in diluted milk and orange juice” value is “Thrombin activity was detected in 1/10 dilutions of milk and orange juice”.
